Measurements taken from patent US6956104B2, “Protein Rim2” (JCR Pharmaceuticals Co., Ltd., priority 1999, dated 2005).
Residue numbers refer to the chain shown, from its start. Names and notes keep the numbering of the source.

What was measured:
PC12 cells = experiment: GH secretion from transfected PC12 cells; type: cell-based; settings: for 8-Br-cAMP-induced, Ca2+-dependent GH secretion: 8-Br-cAMP 1 mM, GH released relative to total cellular GH, n=9; for forskolin-induced GH secretion relative to wild-type cAMP-GEFII: high K+, 15-min incubation, increment above basal, wild-type = 100%
Method: GH secretion from transfected PC12 cells was performed as described in K. Korake et al., J. Biol. Chem., 272:29407(1997). Expression plasmid vectors (pSR α) for wild-type cAMP-GEFII, mutant cAMP-GEFII (T810A), and the double mutant cAMP-GEFII (G114E, G422D) were prepared. As a control, β-galactosidase (β-gal) was used. […] were transfected with GH expression vector (pXGH5: Nichols Institute) plus each vector described above, using LipofectAMINE.
PC12 cell were incubated with a low […] (4.7 mM) or high K^+ (60 mM) solution, in the presence or absence of forskolin (50 μM) or 8-bromoadenosine 3′,5′ cyclic monophosphate (8-Br-cAMP)(1 mM). Forskolin or 8-Br-cAMP was added 10 min before the incubation with a low or high K^+ solution. In some experiments, the PKA inhibitor H-89 (10 μM) was added 10 min before forskolin stimulation.

cAMP-GEFII = biological target: T1, cAMP-GEFII (Mus musculus, UniProt Q9EQZ6); experiment: GST pull-down, interaction of Rim with cAMP-GEFII; type: binding; settings: lysates of COS-1 or MIN6 cells, or mouse brain homogenate; immunoblotting
T1 construct: A full-length cAMP-GEFII cDNA was subcloned into plasmid pFLAG-CMV-2 (Sigma); expressed in transfected cells; host or cells: COS-1 cells
T1 sequence (Q9EQZ6 1-1011): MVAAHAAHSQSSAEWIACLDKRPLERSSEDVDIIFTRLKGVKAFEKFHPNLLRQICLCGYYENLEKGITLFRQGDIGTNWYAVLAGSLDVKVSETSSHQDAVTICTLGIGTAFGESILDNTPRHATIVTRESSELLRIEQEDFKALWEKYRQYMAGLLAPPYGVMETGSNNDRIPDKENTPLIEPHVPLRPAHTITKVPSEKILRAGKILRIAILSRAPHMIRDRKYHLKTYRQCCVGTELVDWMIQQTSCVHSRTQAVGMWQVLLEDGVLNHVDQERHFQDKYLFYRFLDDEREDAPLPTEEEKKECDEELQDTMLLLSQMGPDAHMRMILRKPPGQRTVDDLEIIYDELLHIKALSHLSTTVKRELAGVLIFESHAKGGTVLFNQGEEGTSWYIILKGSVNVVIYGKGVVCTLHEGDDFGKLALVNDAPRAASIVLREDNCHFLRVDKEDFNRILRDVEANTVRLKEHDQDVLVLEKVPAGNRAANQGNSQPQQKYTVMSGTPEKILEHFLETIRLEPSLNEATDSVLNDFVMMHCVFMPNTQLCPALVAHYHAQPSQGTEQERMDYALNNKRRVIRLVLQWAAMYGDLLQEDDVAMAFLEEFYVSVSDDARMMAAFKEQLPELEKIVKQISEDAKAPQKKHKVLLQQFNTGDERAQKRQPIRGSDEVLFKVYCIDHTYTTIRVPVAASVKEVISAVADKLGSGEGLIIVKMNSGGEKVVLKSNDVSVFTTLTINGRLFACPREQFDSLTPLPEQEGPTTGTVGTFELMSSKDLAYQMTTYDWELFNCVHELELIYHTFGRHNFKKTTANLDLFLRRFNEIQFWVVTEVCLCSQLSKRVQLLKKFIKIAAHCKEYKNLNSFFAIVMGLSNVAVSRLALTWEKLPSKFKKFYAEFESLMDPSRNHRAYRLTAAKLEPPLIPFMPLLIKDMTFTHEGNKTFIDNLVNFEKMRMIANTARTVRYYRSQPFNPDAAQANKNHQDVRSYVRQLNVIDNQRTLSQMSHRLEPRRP
Method: Rim2 (amino acid residues 538-863) was expressed as a GST fusion protein and purified according to the method described in “Preparation and Test of GST fusion Protein”. A full-length cAMP-GEFII cDNA was subcloned into plasmid pFLAG-CMV-2 (Sigma). The resultant construct was transfected into COS-1 cells, using LipofectAMINE (Life Technologies). The lysate of the COS-1 cells was incubated with GST-Rim2 immobilized on glutathione beads for 2 hrs at 4° C. The complex thus obtained was washed with distilled water, separated by SDS-PAGE, and immunoblotted with an anti-FLAG M2 antibody (Sigma).
The lysate of MIN6 cells was incubated with GST-Rim2 and interaction between cAMP-GEFII and Rim2 was evaluated according to the method described in “Study on Interaction between Rim2 and cAMP-GEFII: I”, using a IgG antibody raised against the C-terminus (amino acid residues 1001-1011, […] (SEQ ID NO:5) of mouse cAMP-GEFII.
According to the method described in “Preparation and Test of GST fusion Protein”, Rim1 partial sequence (530-806) was expressed as a GST fusion protein and then purified. The brain homogenate from three mice was incubated with GST-Rim1 immobilized on glutathione beads overnight at 4° C. cAMP-GEFII was detected as described in “Study on Interaction between Rim2 and cAMP-GEFII: II”.

[1] = biological target: T2, constitutively active Rab3A (Q81L) (Bos taurus, UniProt P11023, Q81L); experiment: Yeast two-hybrid assay with Rab3A; type: binding, bovine; settings: transactivation of liquid β-galactosidase activity
T2 construct: the full-length cDNA's for wild type mouse Rab3A and constitutively active bovine Rab3A (Q81L) were cloned into the yeast bait vector pBTM116; expressed in transfected cells
T2 sequence (P11023 1-220 Q81L): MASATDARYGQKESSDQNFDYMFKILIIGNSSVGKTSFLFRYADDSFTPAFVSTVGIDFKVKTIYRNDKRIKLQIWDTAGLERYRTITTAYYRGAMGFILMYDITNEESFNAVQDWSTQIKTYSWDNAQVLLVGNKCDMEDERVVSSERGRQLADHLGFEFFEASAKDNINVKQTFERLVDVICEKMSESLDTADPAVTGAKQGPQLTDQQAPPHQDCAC
Excerpt: According to the method described in “Identification of Interacting molecules by YTH Method”, the full-length cDNA's for wild type mouse Rab3A and constitutively active bovine Rab3A (Q81L) were cloned into the yeast bait vector pBTM116.
The nucleotide sequence of zinc finger domains of bovine rabphilin3 (amino acid residues 1-283), rat Rim1 (amino acid residues 1-204) and mouse Rim2 (amino acid residues 1-345 were cloned into the prey vector pVP16. Liquid culture assay of […] activities was performed according to the manufacturer's instructions (Clontech). The activity values were obtained from 3 independent clones for each transformant and normalized by cell numbers determined as OD600.

Rab3A = experiment: In vitro binding of Rab3A to immobilized GST-Rim; settings: immobilized on glutathione beads; anti-Rab3A immunoblotting
Method: Lipid-modified Rab3A was purified from the membrane fraction of Sf9 cells expressing Rab3A. Rat Rim1 (amino acid residues 1-204) and mouse Rim2 (amino acid residues 1-345) were expressed as GST fusion proteins and purified. The GTP γS- or GDP βS-bound form of Rab3A was incubated for 90 min at 4° C. with GST-Rim1, or GST-Rim2 (30 pmol for each) immobilized on glutathione beads in reaction buffer. Rab3A was detected by immunoblotting with anti-Rab3A antibody.

Nc1ncnc2c1nc(Br)n2[C@@H]1O[C@@H]2COP(=O)(O)O[C@H]2[C@H]1O [8-Br-cAMP, 8-bromoadenosine 3′,5′ cyclic monophosphate, reference compound]
8-Br-cAMP-induced, Ca2+-dependent GH secretion (PC12 cells; cAMP-GEFII-transfectant): 34.9±1.3% | 8-Br-cAMP-induced, Ca2+-dependent GH secretion (PC12 cells; control (β-galactosidase-transfectant)): 25.1±1.8%

O=S(=O)(NCCNC/C=C/c1ccc(Br)cc1)c1cccc2cnccc12 [H-89, reference compound]
effect on high K+-induced GH secretion (PC12 cells; H-89 10 μM, cAMP-GEFII-transfected and β-galactosidase-transfected PC12 cells): reduced

B1: Rim1: Rab3-interacting molecule, putative effector of the small G protein Rab3; rat, used as GST fusion (protein)
chain: MSSAVGPRGPRPPTVPPPMQELPDLSHLTEEERNIIMAVMDRQKEEEEKEEAMLKCVVRDMAKPAACKTPRNAESQPHQPPLNIFRCVCVPRKPSSEEGGPERDWRLHQQFESYKEQVRKIGEEARRYQGEHKDDAPTCGICHKTKFADGCGHLCSYCRTKFCARCGGRVSLRSNNEDKVVMWVCNLCRKQQEILTKSGAWFFG
modifications: left off: large carriers
notes: rat, used as GST fusion
interaction with cAMP-GEFII protein (cAMP-GEFII): bound | interaction with active Rab3A (Q81L) [1]: interacts | binding to GTPγS- or GDP-bound form of Rab3A (Rab3A): binds to the GTP-activated form

B2: cAMP-GEFII: cAMP sensor protein, GDP/GTP exchange factor II; wild type transfected into PC12 cells (protein)
chain: T1 sequence (Q9EQZ6 1-1011)
modifications: left off: large carriers
notes: cAMP sensor protein, GDP/GTP exchange factor II; wild type transfected into PC12 cells
forskolin-induced, Ca2+-dependent GH secretion with PKA inhibitor H-89, versus control cells (PC12 cells; H-89 10 μM, forskolin 50 μM): significantly higher | effect on Ca2+-dependent (60 mM K+) secretion of cotransfected GH (PC12 cells; compared to the control transfectant): did not alter | effect on forskolin-induced, Ca2+-dependent GH secretion (PC12 cells; forskolin 50 μM): significantly enhanced

B3: cAMP-GEFII (G114E, G422D): double mutant cAMP-GEFII in which both cAMP binding sites are disrupted (protein, UniProt Q9EQZ6 1-1011, looked up, variant G114E G422D)
Rap guanine nucleotide …: T1 sequence (Q9EQZ6 1-1011) with G114E, G422D
forskolin-induced GH secretion relative to wild-type cAMP-GEFII (PC12 cells; forskolin 50 μM): ~40%

B4: cAMP-GEFII (T810A): mutant cAMP-GEFII in which a potential PKA phosphorylation site is disrupted (protein, UniProt Q9EQZ6 1-1011, looked up, variant T810A)
Rap guanine nucleotide …: T1 sequence (Q9EQZ6 1-1011) with T810A
forskolin-induced GH secretion relative to wild-type cAMP-GEFII (PC12 cells; forskolin 50 μM): not affected
